Data as given in the nanobody polyreactivity screen of Harvey et al. (2022).

assay: yeast display, Sf9 membrane polyspecificity reagent, FACS + sequencing; frameworks hold sequencing errors
Procedure, shortened: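 In a synthetic yeast display library (Saccharomyces cerevisiae BJ5465), nanobody expression was induced with galactose for 36–48 hours. FACS gates were set low and high (top ~1%) using anti-HA fluorescence for expression and streptavidin fluorescence for binding of the Sf9 membrane reagent. Each polyreactivity label is drawn from the gate of origin.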

Sequence	polyreactivity (PSR sort gate)
QVQLVESGGGLVQAGGILRLSCDASGITFSTYAMGWYRQAPGKERELVAAITRSGGTYYADSVKGSFTISRDNAKNTVYLQMNSLKPEDTAVYYCAASYTVFGVRRYGYWGQGTQVTVSS	high polyreactivity
QVQLVESGGGLVQAGGILRLSCDASGLIFGPYTMGWYRQAPGKERELVAAISYGGVSTYYADSVKGRFTISRDNAKNTVYLQMNSLKPEDTAVYYCARGDSTRVIRPSAREYDYWGQGTQVTVSS	low polyreactivity
QVQLVESGGGLVQAGGKLRLSCAASGSIFSDYTMGWYRQAPGKERELVAVITLSSGSTYYADSVKGRFTISRDNAKNTVYLQMNSLKPEDTAVYYCAADGWYYFGSGVFEYDYWGQGTQVTVSS	low polyreactivity
QVQLVESGGGLVQAGGNLLLSCAASGFNFVDYAMGWSRQAPGKERELVASIDRSDGSTYYADSVKGRFTFSRDNAKNTVYLLMNSLKPEDTAVYYCAAADQLYSISTGDYWGQGTQVTVSL	low polyreactivity
QVQLVESGGGLVQAGGNLRLSCAASGNIFYVYAMGWYRQAPGKERELVAAITRSGGRTYYADSVKGRFTISRDNAKNTVYLQMNSLKPEETAVYYCAADRGVTRQKMDYWGQGTQVTVSS	low polyreactivity
QVQLVESGGGLVQAGGPLRLSCAASGYLFSYYAMGWSRQAPGKERELVATIDWGGGSTYYADSVKGRFTISRDNANNTVYLQLNSLKPEDTAVYYCSKDYYINKYGYRYDSWGQGTQVTVSS	low polyreactivity
QVQLVESGGGLVQAGGRLLLSCAASGFTFYTYAMGWYRQAPGKERELVADISSGGSTNYADSVKGRFTISRDNAKNTVYLQMNSLKPEDTAVYYCSADYYFLDWYDYWGQGTQVTVSS	low polyreactivity
QVQLVESGGGLVQAGGRLRISCAASGAIFGEYPMGWYSQAPGKERELVADITTGGNTNYADSVKGRFTITRDNAKNTVYVHMNSLKPEDTAVYYCIAYGNTYGYWWFGYWGQGTQVNVSS	low polyreactivity
QVQLVESGGGLVQAGGRLRISCAASGRIFPYNAMGWYIQAPGKERELVAAINWSGGSTYYADSVKGRFTISRDNAKNTVYLQMNSLKPEDTAVYYCAVKTVRSSSRNYWGQGTQVTVSS	high polyreactivity
QVQLVESGGGLVQAGGRLRISCAASGSIFEGNGMGWYRQAPGKQREFVAAITNRGGSTYYADSVKGRFTISRDNAKNTVYVQMISLKPEDTAVFYCAADWTTNPDYQQSYFVSYEYNYWGHGTQVTVSS	low polyreactivity
QVQLVESGGGLVQAGGRLRISCAATGSTSVRNAMGWSRQGPGKESELVAGISRGGGITYYADSVKGRFTISRDNAKNTVYLQMNILKTEDTAVYYCAAVYYVDYPDGNYEYWGQGTQVTVSS	high polyreactivity
QVQLVESGGGLVQAGGRLRISCADSGSTFQFYALGWYRQAPGKERQLVASIRVRSGTTYYADSVKGRFTISRENAKNTVYLQMTSLKPEDTAVYYCAAGRPFYGRKYDYWGQGTQVTVSS	high polyreactivity
QVQLVESGGGLVQAGGRLRLICAASGFTFGGNVMGWYRQAPGKERELVAAISSSGGSTYYADSVKGRFTISRDNAKNTVYLQMNSLKPEDTAVYYCAKYAVFYQYRYYHWGQGTQVTVSS	high polyreactivity
QVQLVESGGGLVQAGGRLRLICAASGRIFYRNAMGWYRQAPGKERELVAAISYSGGRTYYADSVKGRFTISRDIAKYTVYLQMNRLKPEDTAVYYCAVYGYHEGGYWGQVTQVTVSS	high polyreactivity
QVQLVESGGGLVQAGGRLRLICAASGRTFVVNAMGWYRQAPGQERELVAAITRRAGITYYADSVKGRFTISRDNAKNTVYLQMNSLKPEDTAVYYCAADRSYFPDTRTTYGYNYWGQGTQVTVSS	low polyreactivity
QVQLVESGGGLVQAGGRLRLICAASGSTFYYNALGWYRQAPGKERELVAGISRSGGSTYYADSVKGRFTISRDNAKNTVYLQMNSLKPEDTAVYYCAAKSYAYRWYDYWGQGTQVTVSS	high polyreactivity
QVQLVESGGGLVQAGGRLRLICAASGSTLYSYAMGWYRQAPGKEREFVAAISRRGGSTYYADSVKGRFTISRDNAKNTVYLQMNSLKPEDTAVYYCAARDSSYHWYGYWGQGTQVTVSS	high polyreactivity
QVQLVESGGGLVQAGGRLRLICAASGYTFPLYAMGWYRPAPGKERELVADINIGGASTYYADSVKGRFTISRDNAKNTVELQMNSLKPEDPAVYYCAKEYYDGYFPTFDYDYWGQGTQVTVSS	low polyreactivity
QVQLVESGGGLVQAGGRLRLICSASGRIIKDNAMGWYRQAPGKERELVADISSSGGSTYYADSVKGRFTISRDNAKNTVYLQMNSLKPEDTAVYYFAKYRYPSRLYSFPLGYDYWGQGTQVTLSS	high polyreactivity
QVQLVESGGGLVQAGGRLRLRCAASGIIFTAYVMGWYRQAPGKERELVADITSGDGSTYYADSVKGRFTISRDNAKNTVYLQMNSLKPEDTAVYYCAADYGQLVFDSYRREYDYWGQGTQVTVSS	low polyreactivity
QVQLVESGGGLVQAGGRLRLSCAAAGRTFVLYVMGWYRQAPRKEREFVADINAGGGSTYYADSVKGRFTMSRDNAKNTVYLQMNSLKAEDTAVYYCAASYVRGWKHSLDDYWGQGTQVTVAS	low polyreactivity

Sequence	polyreactivity (PSR sort gate)
QVQLVESGGGLVQAGGRLRLSCAACGIIFLLYAMGWYRQAPGKERELVAAITNGGRTNYADSVQGRFTISRDNAKNTVYLQMNSRKPEDTALYYCNAVLSVPDYTLFDYWGQGTQVTVSS	low polyreactivity
QVQLVESGGGLVQAGGRLRLSCAASGFIFAKYAMGWYRQAPGKERELVAAITSSGVSTYYADSVKGRFTISRDNAKNTVYLQMNSLKPADTAVYYCNARERYSYWGQGTQVTVSS	high polyreactivity
QVQLVESGGGLVQAGGRLRLSCAASGFIFTDNGMGWYRQAPGKERELVAAINSDGSTYYADSVKGRFTISRDNAKNTVYLQMNSLKPEATAVYYCAVDGSITEIYLPGYGYGYWGQGTQVTVSS	low polyreactivity
QVQLVESGGGLVQAGGRLRLSCAASGFPFAVYAMGWYRQAPGKERELVATITSAGSTYYADSVKGRFTISRDTAKNTVYLQRNSLKPEDNEVYYCAAAGTYYRGDYGYWGQGTQVTVSS	low polyreactivity
QVQLVESGGGLVQAGGRLRLSCAASGFTFNSYVMGWYRQAPGKERELVAAITRSGDRTYYADSVKGRFTISRDNAKNTVYLQMNSLKPEDTAVYYCAATWSINYYGWYYYWGQGTQVTVSS	high polyreactivity
QVQLVESGGGLVQAGGRLRLSCAASGFTFRAFTMGWYRQAPGKERELVAAITYSGGRTYYADSVKGRFTISRDNAKNTVYLQMNSLKPEDTAVYYCAKRGWALSEYYYWGQGTQVTVSS	high polyreactivity
QVQLVESGGGLVQAGGRLRLSCAASGFTFRYYAMGWSRQAPGKERELVAGISYRGTSTYYADSVKGRFTISRDNAKNTVYLQMNSLKPEDTAVYYCADEVRYDRHDYWGQGTQVTVSS	high polyreactivity
QVQLVESGGGLVQAGGRLRLSCAASGFTFYYKAMGWYRQAPGKEWELVASITWSGGRTYYADSVKGRFTISRDNAKNTVYFQMNSLKPEDTAVYYCNAGYCIGLVAYGYWGQGTQVTVSS	low polyreactivity
QVQLVESGGGLVQAGGRLRLSCAASGIIFTVYAMGWYRQAPGKERELVAAITSSGGRTYYADSVKGRFTISRDNAKNTVYLHMNSLKPEDTAVYYCAARLPGYVRKYDYWGQGTQVTVSS	high polyreactivity
QVQLVESGGGLVQAGGRLRLSCAASGITFDLYAMGWYSQAPGKERELVAAISISSTSTYYADSVKGRFTISRDYEKNTVYLQMNSLKPEDTAVYYCNAVPSSKTFWFDYWGQGTQVTVSS	low polyreactivity
QVQLVESGGGLVQAGGRLRLSCAASGITFTFNAMGWYRQAPGKERELVAAITWSGGSTIYADSVKGRFTFSRDNAKNTVYLQMNSQKPEDTAVYNCARDTELYVRWLDYWGQGSQVTVSS	low polyreactivity
QVQLVESGGGLVQAGGRLRLSCAASGITFYVYAMGWYRQAPGKVREFVAAISTRDGTTYADSVKGRFTISRDNAKNTVYLQMNRLKPEDTAVYFCAAAYYYDGQQGDFDYWGQGTQVTVSS	low polyreactivity
QVQLVESGGGLVQAGGRLRLSCAASGLIFVWYAMGWYRQAPGKERELVAAISTSGGSTYYADSVKGRFTISRDNAKNTVYLQMNSLKPEDTAVYYCAAARRWWPQGYYWGQGTQVTVSS	high polyreactivity
QVQLVESGGGLVQAGGRLRLSCAASGLIILRYTMGWYRQAPGKERELVAVITSGGRTYYADSVKGRFTISRDNAKNTVYLQMNSLKPEDTAVYYCAASVGLRTSFTGGGYWGQGTQVTVSS	high polyreactivity
QVQLVESGGGLVQAGGRLRLSCAASGLNFYLYAMGWYTQAPGKERELVATITSAGRTNSADTVKGRFTISRDNAKNTVYLERNSLKPEYTAVYYCIRDVRFVGPSGFDYWGQGTEVTVSS	high polyreactivity
QVQLVESGGGLVQAGGRLRLSCAASGNIFKRYTMGWYRQAPGKERELVAAISGGDSTNYADSVKGRFTISRDNANNTFYLQMNSLKPEDTAVYYCAAGGLTLWHGYILGYWGQGTQVTVSS	low polyreactivity
QVQLVESGGGLVQAGGRLRLSCAASGRIFDANVMGWYRQAPGKERELVAAISSGGRTKYADSVKGRFTISRDNAKNNVYLQMNSLKPEDTAVYYCAKKHSPLYDYWGQGTQVTVSS	low polyreactivity
QVQLVESGGGLVQAGGRLRLSCAASGRIFFRNTMGWYRQEPGKERQLVAAISGSGGSKYYADSVKGRFTISRDNAKNTVYLQMNSLKPEDTAVYYCAKRWLYPISYDYWGQGTQVTVSS	high polyreactivity
QVQLVESGGGLVQAGGRLRLSCAASGRIFGVYAMGWYRQAPGKEREFVASITRGGGRTYYADSVKGRFTISRDNAKNTVYLQMNSLKPEDTAVYYCNAVVNSYPYYYWGQGTQVTVSS	high polyreactivity
QVQLVESGGGLVQAGGRLRLSCAASGRIFKSYAMGWYRQAPGKERELVATISISGGSTYYADSVKGRFTISRDNAKNTVYLQMNSLKPEDTAVYYCASDRYGLGDYDYWGQGTQVTVSS	low polyreactivity
